From PMC9769802

Target: recombinant fusion p30-mFc protein (ASFV p30 fused to mouse IgG1 Fc) (African swine fever virus (strain not stated)) (UniProt P34204)
Assay: SEC-MALS

recombinant fusion p30-mFc protein (ASFV p30 fused to mouse IgG1 Fc) (from UniProt P34204 1-204) (Fc fusion)
stoichiometry N: 2
